# From paper PMC7244493, “Osteogenesis imperfecta mutations in plastin 3 lead to impaired calcium regulation of actin bundling” (Bone Research, 2020)
# Changes are numbered by the printed parent chain. In names and notes the source's numbering stands.
# B1: plastin 3 (PLS3) E249_A250insIMGHSHSGSCLL (natural protein)
# chain: MDEMATTQISKDELDELKEAFAKVDLNSNGFICDYELHELFKEANMPLPGYKVREIIQKLMLDGDRNKDGKISFDEFVYIFQEVKSSDIAKTFRKAINRKEGICALGGTSELSSEGTQHSYSEEEKYAFVNWINKALENDPDCRHVIPMNPNTDDLFKAVGDGIVLCKMINLSVPDTIDERAINKKKLTPFIIQENLNLALNSASAIGCHVVNIGAEDLRAGKPHLVLGLLWQIIKIGLFADIELSRNEIMGHSHSGSCLLALAALLRDGETLEELMKLSPEELLLRWANFHLENSGWQKINNFSADIKDSKAYFHLLNQIAPKGQKEGEPRIDINMSGFNETDDLKRAESMLQQADKLGCRQFVTPADVVSGNPKLNLAFVANLFNKYPALTKPENQDIDWTLLEGETREERTFRNWMNSLGVNPHVNHLYADLQDALVILQLYERIKVPVDWSKVNKPPYPKLGANMKKLENCNYAVELGKHPAKFSLVGIGGQDLNDGNQTLTLALVWQLMRRYTLNVLEDLGDGQKANDDIIVNWVNRTLSEAGKSTSIQSFKDKTISSSLAVVDLIDAIQPGCINYDLVKSGNLTEDDKHNNAKYAVSMARRIGARVYALPEDLVEVKPKMVMTVFACLMGRGMKRV
# notes: Patient mutation; also called E249_A250insI-L; Ca2+-insensitive mutant; source: E. coli BL21-CodonPlus(DE3), purified (TALON cobalt resin)
# B2: plastin 3 (PLS3), wild type (natural protein)
# chain: MDEMATTQISKDELDELKEAFAKVDLNSNGFICDYELHELFKEANMPLPGYKVREIIQKLMLDGDRNKDGKISFDEFVYIFQEVKSSDIAKTFRKAINRKEGICALGGTSELSSEGTQHSYSEEEKYAFVNWINKALENDPDCRHVIPMNPNTDDLFKAVGDGIVLCKMINLSVPDTIDERAINKKKLTPFIIQENLNLALNSASAIGCHVVNIGAEDLRAGKPHLVLGLLWQIIKIGLFADIELSRNEALAALLRDGETLEELMKLSPEELLLRWANFHLENSGWQKINNFSADIKDSKAYFHLLNQIAPKGQKEGEPRIDINMSGFNETDDLKRAESMLQQADKLGCRQFVTPADVVSGNPKLNLAFVANLFNKYPALTKPENQDIDWTLLEGETREERTFRNWMNSLGVNPHVNHLYADLQDALVILQLYERIKVPVDWSKVNKPPYPKLGANMKKLENCNYAVELGKHPAKFSLVGIGGQDLNDGNQTLTLALVWQLMRRYTLNVLEDLGDGQKANDDIIVNWVNRTLSEAGKSTSIQSFKDKTISSSLAVVDLIDAIQPGCINYDLVKSGNLTEDDKHNNAKYAVSMARRIGARVYALPEDLVEVKPKMVMTVFACLMGRGMKRV
# notes: plastin 3 (PLS3, T-plastin), human; recombinant wild type, parent of the OI mutants; Modified pColdI vector with a TEV protease site after the 6xHis tag; also called T-plastin; WT PLS3; source: E. coli BL21-CodonPlus(DE3), purified (TALON cobalt resin)
# B3: plastin 3 (PLS3) N446S (natural protein)
# chain: B2 chain with N446S
# notes: plastin 3 (PLS3), human, osteogenesis imperfecta-linked missense mutation N446S in a proline-rich loop of CH3; Patient mutation; also called Ca2+-hypersensitive mutant; source: E. coli BL21-CodonPlus(DE3), purified (TALON cobalt resin)
# B4: plastin 3 (PLS3) A368D (natural protein)
# chain: B2 chain with A368D
# notes: plastin 3 (PLS3), human, osteogenesis imperfecta-linked missense mutation A368D in CH2 of ABD1; Patient mutation; also called Ca2+-insensitive mutant; Ca2+-hyposensitive mutant; source: E. coli BL21-CodonPlus(DE3), purified (TALON cobalt resin)
# B5: plastin 3 (PLS3) A253_L254insN (natural protein)
# chain: MDEMATTQISKDELDELKEAFAKVDLNSNGFICDYELHELFKEANMPLPGYKVREIIQKLMLDGDRNKDGKISFDEFVYIFQEVKSSDIAKTFRKAINRKEGICALGGTSELSSEGTQHSYSEEEKYAFVNWINKALENDPDCRHVIPMNPNTDDLFKAVGDGIVLCKMINLSVPDTIDERAINKKKLTPFIIQENLNLALNSASAIGCHVVNIGAEDLRAGKPHLVLGLLWQIIKIGLFADIELSRNEALAANLLRDGETLEELMKLSPEELLLRWANFHLENSGWQKINNFSADIKDSKAYFHLLNQIAPKGQKEGEPRIDINMSGFNETDDLKRAESMLQQADKLGCRQFVTPADVVSGNPKLNLAFVANLFNKYPALTKPENQDIDWTLLEGETREERTFRNWMNSLGVNPHVNHLYADLQDALVILQLYERIKVPVDWSKVNKPPYPKLGANMKKLENCNYAVELGKHPAKFSLVGIGGQDLNDGNQTLTLALVWQLMRRYTLNVLEDLGDGQKANDDIIVNWVNRTLSEAGKSTSIQSFKDKTISSSLAVVDLIDAIQPGCINYDLVKSGNLTEDDKHNNAKYAVSMARRIGARVYALPEDLVEVKPKMVMTVFACLMGRGMKRV
# notes: plastin 3 (PLS3), human, osteogenesis imperfecta-linked single-residue insertion A253_L254insN in the CH1-CH2 connecting loop of ABD1; Patient mutation; also called Ca2+-hypersensitive mutant; source: E. coli BL21-CodonPlus(DE3), purified (TALON cobalt resin)
# B6: plastin 3 (PLS3) L478P (natural protein)
# chain: B2 chain with L478P
# notes: plastin 3 (PLS3), human, osteogenesis imperfecta-linked missense mutation L478P in CH3 of ABD2; Patient mutation; also called bundling-deficient mutant; source: E. coli BL21-CodonPlus(DE3), purified (TALON cobalt resin)
# Target: T1, F-actin (chicken skeletal muscle actin, polymerized) (chicken, UniProt P68139 1-377)
# Assay: cell-based or functional assay
# Conditions: not given
"F-actin bundling, low-speed (17 000 g) co-sedimentation, [PLS3]50%, Ca^2+","F-actin bundling, low-speed (17 000 g) co-sedimentation, [PLS3]50%, EGTA",Binder
0.03 µmol/L,0.1 µmol/L,B1
2.97 µmol/L,0.49 µmol/L,B2
6.36 µmol/L,0.58 µmol/L,B3
0.59 µmol/L,0.47 µmol/L,B4
2.09 µmol/L,0.53 µmol/L,B5

# Target: T1, F-actin (chicken skeletal muscle actin, …)
# Assay: co-sedimentation; high-speed co-sedimentation, 300 000 g, 25 °C, 30 min; plastin 5 µmol·L^-1, F-actin varied 1-50 µmol·L^-1; actin polymerized in 2 mmol·L^-1 MgCl2, 30 mmol·L^-1 KCl, 10 mmol·L^-1 HEPES pH 7.0; incubated overnight at 4 °C then 1 h at 25 °C; SDS-PAGE densitometry, fit to a binding isotherm
# Conditions: both partners purified
row,Kd,Binder
1,2.56 µM,B1
2,7.41 µM,B2
3,4.79 µM,B3
4,2.16 µM,B6
5,4.22 µM,B4
6,3.77 µM,B5
